The assay has as its target human IL-3 expressed by E. coli (Peprotech), non-glycosylated (human) (UniProt P08700). Kind of assay: cell-based or functional assay.

The source of these data is patent US20180371075A1.

UniProt P08700, sequence (P08700 28-152, tags or fused parts left off): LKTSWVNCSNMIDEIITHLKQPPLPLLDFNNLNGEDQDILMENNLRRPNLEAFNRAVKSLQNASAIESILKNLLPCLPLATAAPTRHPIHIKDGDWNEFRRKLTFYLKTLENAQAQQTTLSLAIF

The substance “R&D monoclonal anti-IL-3 antibody clone 4806 (R&D Systems, Inc., catalogue No. MAB203)” yielded an IC50, IL-3 dependent growth of TF1 cells of 0.033 µg/mL.
